Key:
YvcJ = molecular target: T1, YvcJ (Bacillus subtilis, UniProt O06973); assay: thermal shift assay (SYPRO Orange) with apparent KD; supported by limited proteolysis with endoproteinase Glu-C; format: binding
T1 construct: 6His-tagged recombinant YvcJ
T1 sequence (O06973 1-295): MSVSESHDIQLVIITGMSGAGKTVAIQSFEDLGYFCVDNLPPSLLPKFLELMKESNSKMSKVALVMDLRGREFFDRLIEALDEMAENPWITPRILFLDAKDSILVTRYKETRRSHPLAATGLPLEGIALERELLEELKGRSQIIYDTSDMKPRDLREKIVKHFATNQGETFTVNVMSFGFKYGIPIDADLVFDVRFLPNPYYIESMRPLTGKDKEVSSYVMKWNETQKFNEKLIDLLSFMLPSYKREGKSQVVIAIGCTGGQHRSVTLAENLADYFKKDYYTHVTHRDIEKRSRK

[1] = molecular target: T2, GlmS, glucosamine-6-phosphate synthase from B. subtilis, with a C-terminal 6His-tag (Bacillus subtilis 168, UniProt P0CI73 1-600); assay: cell-based or functional assay
T2 sequence (looked up): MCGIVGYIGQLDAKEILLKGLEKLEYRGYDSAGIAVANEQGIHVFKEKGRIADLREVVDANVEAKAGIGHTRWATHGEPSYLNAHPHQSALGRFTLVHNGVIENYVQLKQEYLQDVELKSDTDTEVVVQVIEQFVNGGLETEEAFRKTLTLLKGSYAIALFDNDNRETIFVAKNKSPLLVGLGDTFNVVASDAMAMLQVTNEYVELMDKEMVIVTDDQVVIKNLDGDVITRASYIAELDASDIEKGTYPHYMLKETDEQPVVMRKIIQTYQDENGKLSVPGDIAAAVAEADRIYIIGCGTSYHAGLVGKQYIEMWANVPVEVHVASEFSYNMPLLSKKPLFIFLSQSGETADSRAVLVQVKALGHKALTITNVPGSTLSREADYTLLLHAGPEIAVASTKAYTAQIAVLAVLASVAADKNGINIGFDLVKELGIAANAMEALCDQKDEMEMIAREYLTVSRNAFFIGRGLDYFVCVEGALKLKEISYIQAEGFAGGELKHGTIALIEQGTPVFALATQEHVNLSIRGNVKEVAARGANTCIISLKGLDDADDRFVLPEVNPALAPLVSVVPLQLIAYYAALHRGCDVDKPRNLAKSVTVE

[2] = molecular target: T3, YvcJ, purified 6His-tagged protein (Bacillus subtilis, UniProt O06973 1-295)
T3 chain: T1 sequence (O06973 1-295)

[3] = molecular target: T3, YvcJ, purified 6His-tagged protein; assay: ITC; 1 mM UDP-GlcNAc
[4] = molecular target: the molecule itself; assay: dynamic light scattering; 24 µM YvcJ with 7 µM GlmR (ratio 1:0.3 YvcJ:GlmR) and 0.4 mM UDP-GlcNAc; 25 °C; 50 mM Tris-HCl pH 7.5, 50 mM NaCl, 5% glycerol
[5] = molecular target: the molecule itself; assay: dynamic light scattering; 24 µM YvcJ alone, without or with 0.4 mM UDP-GlcNAc; 25 °C; 50 mM Tris-HCl pH 7.5, 50 mM NaCl, 5% glycerol

For `CC(=O)N[C@H]1[C@@H](OP(=O)(O)OP(=O)(O)OC[C@H]2O[C@@H](n3ccc(=O)[nH]c3=O)[C@H](O)[C@@H]2O)O[C@H](CO)[C@@H](O)[C@@H]1O` [UDP-GlcNAc], which Kd (YvcJ) is on record?
The Kd was 280 ± 470 µM.

B1: GlmR (formerly YvcK), purified 6His-tagged protein (natural protein)
chain: MGQKPKIAIFGGGTGLSVLLRGLKHKPVDITAIVTVADDGGSSGRLRNELKIPPPGDIRNVLAALSDVEPLVEDLFQHRFNKGNDLTGHSLGNLILAAMTNITGDFFHAVTEMSKVLNVRGKVLPAANASVVLHAEMEDGRVVSGESTIPEYGQRIKRVFLTPEQIDPLPETIDVIREADLIIIGPGSLYTSILPNLLVPKIGEEVIKAPAKKVYICNVMTQPGETLHYTAADHVKALNQHMGCGFIDTILVNSEDIPDEIKRKYEMESARPVDFDIEELKAMGLEVIRDQIVTYKNDVIRHDTHKVASLLVDLLKE
What does the source list for B1?
GlmS specific activity (GlcN6P produced, enzyme-coupled assay with GNA-1, CoASH at 412 nm, 37 °C); 7.3 µM GlmS with 0 to 32.1 µM GlmR, no UDP-GlcNAc [1]: 16 fold; hydrodynamic size of YvcJ by dynamic light scattering; 24 µM YvcJ titrated with GlmR at a ratio 1:0.3 in the presence of 0.4 mM UDP-GlcNAc [2]: 124 nm; Kd [3]: 9.03 µM

B2: YvcJ, purified 6His-tagged protein (natural protein, Bacillus subtilis, UniProt O06973 1-295, looked up)
chain: T1 sequence (O06973 1-295)
notes: Cloned BamHI/XhoI in pET21: the His tag is probably C-terminal and vector residues may precede Met1 (surmised); also called RapZ homologue; source: purified (Ni2+-NTA resin, PD-10 column) as previously described
How did the “stoichiometry N” value [4] turn out when B2 was run?
Its value is 5 molecules.

What about the “stoichiometry N” value [5] of the same molecule?
The value was ~15 molecules.

Reference: paper PMC7525490, “Uridine diphosphate N-acetylglucosamine orchestrates the interaction of GlmR with either YvcJ or GlmS in Bacillus subtilis” (Scientific Reports, 2020)
